In the nanobody polyreactivity screen of Harvey et al. (2022):

Assay: yeast display, Sf9 membrane polyspecificity reagent, FACS + sequencing; frameworks hold sequencing errors
Outline: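 After 36–48 hours of galactose induction, yeast (Saccharomyces cerevisiae BJ5465) displaying a synthetic nanobody library were stained at 4 °C for 1 hour with 10% biotinylated, detergent-solubilized Sf9 membrane reagent. Streptavidin microbeads enriched the stained cells before FACS sorting into low and high (top ~1%) gates on anti-HA and streptavidin fluorescence. Each clone's polyreactivity label reflects its gate of origin.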

| Sequence | polyreactivity (PSR sort gate) |
| --- | --- |
| QVQLVESGGGLVQAGGSLRLSSAASGITFKYYVMGWYRQAPGKEREFVAAISWGGGSTYYADSVKGRFTISRDNAKITVYLQMNSLKPEDTAVYYCATSHGLYTRWYDYWGQGTQVTVSS | high polyreactivity |
| QVQLVESGGGLVQAGGSLRLSSAASGITFPWYAMGWSRQAPGKERELVAAISRSGGSTYADSVKGRFTISRDNAKNTVYLQMNSLKPEDTAVYYCAAGTYSGSRFDYWGQGTQVTVSS | high polyreactivity |
| QVQLVESGGGLVQAGGSLRLSSAASGITFVWNAMGWYRQAPGKERELVATISRGGVRTYYADSVKGRFTISRDNAKNTVYLQMNSLKQEDTAVYYCAADGSYVHWEYGYWGQGTQVTVSS | low polyreactivity |
| QVQLVESGGGLVQAGGSLRLSSAASGLIFSVYAMGWYRQAPGKERELVAAISSRGGTTYYADSVKGRFTISRDNAKNTVYLQMNSLKPEDTAVYYCAARSWSYTYDYWGQGTQVTVSS | high polyreactivity |
| QVQLVESGGGLVQAGGSLRLSSAASGLTFINYDMGWYRQAPAKERELVAAISQIGTSTYYADSVKRRFTISRDNAKNTVYLQMNSLKPEDTAVYYCAAEFPTVYIPWSEMDYWGQGTQVTVSS | high polyreactivity |
| QVQLVESGGGLVQAGGSLRLSSAASGLTFSDYAMAWYRQAPGKERELVAGISSGGSTYYADSVKGRFTISRDNAKNTVYLQMNSLKPEDTAVYYCAATRYNRWPIKFDYWVQGTQVTVSS | high polyreactivity |
| QVQLVESGGGLVQAGGSLRLSSAASGNTFRHYAMGRYRQAPGKERELVAAISYSGGSTYYADSVKGRFTISRDNAKNTVYLQMNSLKPEDTAVYYCAAYSYASYGVSGYYYWGQGTQVTVSS | high polyreactivity |
| QVQLVESGGGLVQAGGSLRLSSAASGRIFGHYAMGWYRQAPGKERELVAAISRSGTRTYYADSVKGRFTISRDNAKNTVYLQMNSLKPEDTAVYYCAAYTYKGIYYYWGQGTQVTVSS | high polyreactivity |
| QVQLVESGGGLVQAGGSLRLSSAASGRIFKGNAMGWYRQAPGKERELVAAISKRGGSTHYADSVKGRFTISRDNSKNTVYLQMNSLKPEDTAVYYCATDSYYVGAVHYYYWGQGTQVTVSS | high polyreactivity |
| QVQLVESGGGLVQAGGSLRLSSAASGRIFPRYAMGWYSQAPGKERELVAAISGSGGGTYYADSVKGRFTISRDNAKNTVYLQMNSLKPEDTAVYYCAAVATQEKYDYWGQGTQVTVSS | low polyreactivity |
| QVQLVESGGGLVQAGGSLRLSSAASGRIFRGYTMGCSRQAPGKDRELVAAISRSGTRTYYADSVKGRFPISRDNAKNTGYLQMNSLTPEDTAVYDCAVDSTTAGTGMGYWGQGTQVTVSS | high polyreactivity |
| QVQLVESGGGLVQAGGSLRLSSAASGRIFWAYLMGRYRQAPGKERELVATIRWRGGSTYYADSVKGRFTISRDNAKNTFYLQMIRLKLEDTAVYYCNADRYSRISPTRYDYWGQGTQVTVSS | high polyreactivity |
| QVQLVESGGGLVQAGGSLRLSSAASGRIFYRYTMGWYRQAPGKERELVAAITRGSTNYADSVKGRFTISRDNAKNTVYLQMNSLKPDDTAVYYWAKAYSRTDRFSSPYYYYWGQGTQVTVSS | high polyreactivity |
| QVQLVESGGGLVQAGGSLRLSSAASGRISGYNMGWYRQAPGKERELVAAISNGGSTNYADSVKGRFTISRDNAKNTVYLQMNSLKPEDTAVYYCNRRVPYSFYSRGYYYWGQGTQVTVSS | high polyreactivity |
| QVQLVESGGGLVQAGGSLRLSSAASGRNYPKYAMGSYRQAPGKERELVAAISQRGGSTYYADSVKGRFTISRDNAKNTVYLQMNSLKPEDTAVYYCAASYYRQSGEYDYWGQGTLVTVSS | low polyreactivity |
| QVQLVESGGGLVQAGGSLRLSSAASGRTFGGYAMGWYRQAPGKERELVAAISWTGGSTYDADSVKGRFTISRDNAKNTVYLQMNSLKPEDTAVYYCNRDVGRNYQGPEYYYWGQGTQVTVSS | low polyreactivity |
| QVQLVESGGGLVQAGGSLRLSSAASGRTFHRNAMGWYRQAPGKERELVAAITGDGRTNYADSVKGRFTISRDNAKNTVYLQMNSLKPEDTAVYYCAARFSYRSYDYWGQGTQVTVSS | low polyreactivity |
| QVQLVESGGGLVQAGGSLRLSSAASGRTFKYYGLGWYRQPPGKESQLVATISRSSSRTYYADSVKGRFTISRDNAKNTVYFKMNSLKPEDSAVYYCASLAPRSYDYDYWGKGTQVTVSS | high polyreactivity |
| QVQLVESGGGLVQAGGSLRLSSAASGRTFQDNAMGSYRQAPGKERELVAAISWRGGSTNYADSVKGRFTISRDNAKNTVYLQMNSLIPEDTAVYYCNRDPRKYGKLDYWGQGTQVTVSS | low polyreactivity |
| QVQLVESGGGLVQAGGSLRLSSAASGRTFRYYAMRWYRQAPAKERELVAAINRGGSTYYGDSVKGRFTISRDNAKNTVYLQMNSLKPVDTAVYYCNVDKYRIVGFHTPYDYWGQGTQVTVSS | high polyreactivity |
| QVQLVESGGGLVQAGGSLRLSSAASGRTFYANAMGWYRQAPRKERELVAAISSGGITNYADSVKGRFTISRDNAKNTVYLQMNSLKPEDTAVYYCPYDYWGQGTQVTVSS | low polyreactivity |
| QVQLVESGGGLVQAGGSLRLSSAASGRTFYLYAMGWYRQAPGKAMELVAAISRSGGITYYADSVKGRFTISRDNAKNTVYLQMNSLKPEDTGVYYCAASRAGGYYGKGYSWGQGSQVTVSS | high polyreactivity |

| Sequence | polyreactivity (PSR sort gate) |
| --- | --- |
| QVQLVESGGGLVQAGGSLRLSSAASGRTFYVNAMGWYRQAPGKERELVAAITRSSGSTHYADSVKGRFTISRDNAKNTVYLQMNSLKPEDTAVYYCAADSTYRKYYYWGQGTQVTVSS | high polyreactivity |
| QVQLVESGGGLVQAGGSLRLSSAASGSIFDSNALGWYRQARGKERELVAAISLSGGSTYYADSVKGRFTISRDNAKNTVYLQMKSLKPEDTAVYYCAKDGWYEYYWGQGTQVTVSS | low polyreactivity |
| QVQLVESGGGLVQAGGSLRLSSAASGSIFGSNAMGWSRQAPGKERELVATITTSGGITYYADSVKGRFTISRDNAKNTVYLQMTSLKPEDTAVYYCAAAEGGGLVTYDYWGQGTQVTVSS | low polyreactivity |
| QVQLVESGGGLVQAGGSLRLSSAASGSIFGYAMGCDRHAPGKERELVASTTYADSVKGRFTISRDNAKNTVYLQMNSLKPEDTAVYYCAAEDRPLYWRFPDEMDYWGQGTQVTVSS | low polyreactivity |
| QVQLVESGGGLVQAGGSLRLSSAASGSIFGYNAIGWYRQAPGKERELVAAISYSGGRTYYADSVKGRFTISRDNAKNTVYLQMNCLKAEDTAVYYCAKVLQYRTFYTGYDYWGQGTQVTVSS | high polyreactivity |
| QVQLVESGGGLVQAGGSLRLSSAASGSIFIGYAMGWYRQAPGKARELVAAINDSGDRTYYADSVKGRFTISRDNAKNTVFLQMNSLKREDTAVYYCAADLGSLDPEYDYWGQGTQVTVSS | low polyreactivity |
| QVQLVESGGGLVQAGGSLRLSSAASGSIFITYAMGWYRQAPGKERELVAAIRDSGDRTYYADSVKGRFTISRDNAKNTVYLQMNSLKPEDTAVYYCNARWQEPLKYDYWGQGTQVTVSS | low polyreactivity |
| QVQLVESGGGLVQAGGSLRLSSAASGSIFPSYAMGWYIQAPGKETELVAAITTSGGNTFYADSVKGRFTISRDNAKNTVYLQMNSLKPEDTAVYYCAADYSPYTVEYDYWGQGTQVTVSS | low polyreactivity |
| QVQLVESGGGLVQAGGSLRLSSAASGSIFRGYAMGWYRQAPEKERELVAAISRRGGSTYYADSVKGRFTISRDNAKNTVYLQMNSLKPEDTAVYYCAKDGTGAGTYDYWGLGTQVTVSS | low polyreactivity |
| QVQLVESGGGLVQAGGSLRLSSAASGSIFSRYAMGWYRQAPGIERELVAAITWSGGSTYYADSVKGRFTISRDNAKNTVYLQMNSLKPEDTAVYYCAAFGYAPYNHRYDYWGQGTQVTVSS | low polyreactivity |
| QVQLVESGGGLVQAGGSLRLSSAASGSIFVHYAMGWYRQAPGKEREFVAAISRGGGTTYYADSVKGRFTISRDNAKNTVYLQLNCLKPEDNAVYYCNAVRFFEHDYWGQGTQVTVSS | high polyreactivity |
| QVQLVESGGGLVQAGGSLRLSSAASGSILWQYAMGWYRQAPGKERELVAAITYSGGSTHYADSVKGRFTISRDNAKNTVYLQMNSLKPEDTAVYYCAAGYWSRYAALRYDHWGQGTQVTVSS | low polyreactivity |
| QVQLVESGGGLVQAGGSLRLSSAASGSILYYNAMGWYRQAPGKERELVAAITSYGGDTYYADSVKGRFTISRDNAKNTVYLQMNSLKPEDSAVYYCAASSHFRPWAYYDDDYDHWGQGTQVTVSS | low polyreactivity |
| QVQLVESGGGLVQAGGSLRLSSAASGSIQFRNAMRWYRHAPGKERELVAAITVSGGSTYYADSVKGRFTISRDYAKNRVYLQMNSLKPEDNAVYLCAAVYLLRYSQFDYWGQGTQVTESS | low polyreactivity |
| QVQLVESGGGLVQAGGSLRLSSAASGSISDSYAMGWYRQAPGKERELVAAITSGDSTYYADSVKGRFTISRDNAKNTVYLQMNSLKPEDTAVYFCAKRVSRVRGYVFTDWSEYDYWGQGTQVTVSS | low polyreactivity |
| QVQLVESGGGLVQAGGSLRLSSAASGSISPQNVMGWYRQEPGKERELVAAITGGGSTNYADSVKGRFTISRDNAKNTVSLQMNSLKPEDTAVYYCNDDYFQDRLDYWGQGTQVTVSS | low polyreactivity |
| QVQLVESGGGLVQAGGSLRLSSAASGSRNAMGWSRQAPGKEREFVAAITWNGGSTYYADSVKGRFTISRDNAKNTVYLQMNSLKPEDTAVYYCNKREVFIYGTTYDYWGQGTQVTVSS | low polyreactivity |
| QVQLVESGGGLVQAGGSLRLSSAASGSTFGAYAMGWYRQAPGKERELVAVINSDGSTNYADSVKGRFTISRDNAKNTVYLQMNSLKPEDTAVYFCAKERTSRGGVPRMNYWGQGTQVTVSS | low polyreactivity |
| QVQLVESGGGLVQAGGSLRLSSAASGSTFRGNAMGWYRQAPGKERELVAAISAIGGSTYYADSVKGRFTISRDNAKNTVYLQMNSLKPEDTAVYYCAARYLYLLGGFNYWGQGTQVTVSS | high polyreactivity |
| QVQLVESGGGLVQAGGSLRLSSAASGSTFRWYAMGWSRQEPGKEREFVAAITWSGGRTYYADSVKGRFTISRDNAKNTVFLQLNSLKPEDTAVYYCNAYDYGYSFNYWGQGTQVTLSS | high polyreactivity |
| QVQLVESGGGLVQAGGSLRLSSAASGSTFRYYVMGRYRQAAGKERELVAGISSRGGTTYYADSVKGRFTISRDNAKNTVYLQMNSLKPEDSAVYYCNADTAAAQASYDRLYVLLDYWGQGTQVTVSS | low polyreactivity |
